The results in this text go back to the supplement of paper PMC9112550, “Optimization of the antimicrobial peptide Bac7 by deep mutational scanning” (BMC Biology, 2022).
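Also: peptides expressed intracellularly from a pBAD plasmid library in pooled LB shake-flask culture, induced with 0.3% L-arabinose, DNA abundance read by NGS, three biological replicates, DESeq2 with apeglm shrinkage.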

For the data set, the system named is Escherichia coli TOP10. The experiment in a line: shrunken log2 fold change of peptide-encoding DNA abundance (4.5 h post-induction vs induction); higher = less antimicrobial activity (less host growth inhibition). The following applies: time post-induction: 4.5 h; library: site-saturation at positions 5, 18, 19, 20.
For RRIRNRPPRLPRPRPRPVHTPRP, the “shrunken log2 fold change” value was determined as 0.0171.

RRIRSRPPRLPRPRPRPAIYPRP: the “shrunken log2 fold change” value was -1.04.

Regarding RRIRGRPPRLPRPRPRPLAKPRP, the “shrunken log2 fold change” value worked out at 1.29.

Consider RRIRHRPPRLPRPRPRPNLIPRP, for which the “shrunken log2 fold change” value was -0.00121.

For the sequence RRIRPRPPRLPRPRPRPPLCPRP, the “shrunken log2 fold change” value is 0.281.

Take RRIRIRPPRLPRPRPRPVKVPRP: the “shrunken log2 fold change” value was -0.00567.

Regarding RRIRCRPPRLPRPRPRPFQDPRP, the “shrunken log2 fold change” value is -0.169.

RRIRKRPPRLPRPRPRPARRPRP: the “shrunken log2 fold change” value was 0.888.

On to RRIRERPPRLPRPRPRPEPCPRP, for which the “shrunken log2 fold change” value is -0.148.

Turning to RRIRKRPPRLPRPRPRPWFPPRP, the “shrunken log2 fold change” value is -0.0488.

In the case of RRIRMRPPRLPRPRPRPLVYPRP, the “shrunken log2 fold change” value worked out at 0.19.

Take RRIRRRPPRLPRPRPRPDFCPRP: the “shrunken log2 fold change” value is -0.0293.

As for RRIRDRPPRLPRPRPRPQTEPRP, the “shrunken log2 fold change” value stood at 0.125.

Consider RRIRNRPPRLPRPRPRPCVFPRP, for which the “shrunken log2 fold change” value was -0.162.

On to RRIRYRPPRLPRPRPRPLCYPRP, for which the “shrunken log2 fold change” value is -1.

As to RRIRGRPPRLPRPRPRPPCMPRP, the “shrunken log2 fold change” value is 0.293.

Regarding RRIRNRPPRLPRPRPRPRVTPRP, the “shrunken log2 fold change” value is 0.0249.

For the sequence RRIRSRPPRLPRPRPRPTCSPRP, the “shrunken log2 fold change” value turned out to be 0.0811.

Take RRIRIRPPRLPRPRPRPPILPRP: the “shrunken log2 fold change” value was -0.0859.

Take RRIRQRPPRLPRPRPRPRNFPRP: the “shrunken log2 fold change” value was -0.0725.

With RRIRHRPPRLPRPRPRPSFPPRP, the “shrunken log2 fold change” value is -0.207.

Consider RRIRGRPPRLPRPRPRPRGEPRP, for which the “shrunken log2 fold change” value stood at 1.04.

For the sequence RRIRFRPPRLPRPRPRPTIYPRP, the “shrunken log2 fold change” value is -0.689.

For the sequence RRIRKRPPRLPRPRPRPEHAPRP, the “shrunken log2 fold change” value is 1.12.

As for RRIRIRPPRLPRPRPRPGRQPRP, the “shrunken log2 fold change” value came out at 0.172.

With RRIRLRPPRLPRPRPRPDNLPRP, the “shrunken log2 fold change” value was -0.186.

With RRIRWRPPRLPRPRPRPGIPPRP, the “shrunken log2 fold change” value amounted to 0.11.

With RRIRNRPPRLPRPRPRPWMWPRP, the “shrunken log2 fold change” value is -0.0133.

As to RRIRVRPPRLPRPRPRPSEWPRP, the “shrunken log2 fold change” value was -0.0811.

For the sequence RRIRKRPPRLPRPRPRPYSYPRP, the “shrunken log2 fold change” value is -0.0565.

In the case of RRIRFRPPRLPRPRPRPYVIPRP, the “shrunken log2 fold change” value is -0.303.

In the case of RRIRMRPPRLPRPRPRPIESPRP, the “shrunken log2 fold change” value stood at 0.000778.

As for RRIRFRPPRLPRPRPRPGACPRP, the “shrunken log2 fold change” value was -0.0223.

Take RRIRGRPPRLPRPRPRPTYYPRP: the “shrunken log2 fold change” value amounted to 0.0798.

For the sequence RRIRRRPPRLPRPRPRPRYRPRP, the “shrunken log2 fold change” value is -0.0166.

In the case of RRIRYRPPRLPRPRPRPYNKPRP, the “shrunken log2 fold change” value was -0.734.

For RRIRNRPPRLPRPRPRPEYPPRP, the “shrunken log2 fold change” value is -0.243.

Regarding RRIRHRPPRLPRPRPRPRVRPRP, the “shrunken log2 fold change” value turned out to be 0.0975.

Take RRIRTRPPRLPRPRPRPCYQPRP: the “shrunken log2 fold change” value was -0.335.

For RRIRMRPPRLPRPRPRPNWGPRP, the “shrunken log2 fold change” value amounted to 0.448.

Regarding RRIRNRPPRLPRPRPRPVIDPRP, the “shrunken log2 fold change” value was -0.123.

Consider RRIRMRPPRLPRPRPRPEKHPRP, for which the “shrunken log2 fold change” value was 0.921.

In the case of RRIRGRPPRLPRPRPRPHGHPRP, the “shrunken log2 fold change” value came out at 0.382.

Take RRIRPRPPRLPRPRPRPPPPPRP: the “shrunken log2 fold change” value was found to be 0.85.

On to RRIRTRPPRLPRPRPRPYLAPRP, for which the “shrunken log2 fold change” value is -0.378.

For RRIRMRPPRLPRPRPRPRHKPRP, the “shrunken log2 fold change” value came to 0.402.

Regarding RRIRMRPPRLPRPRPRPNWCPRP, the “shrunken log2 fold change” value is 0.0361.

Consider RRIRIRPPRLPRPRPRPPPQPRP, for which the “shrunken log2 fold change” value amounted to 0.52.

RRIRWRPPRLPRPRPRPYNFPRP: the “shrunken log2 fold change” value was -0.58.

Consider RRIRCRPPRLPRPRPRPAREPRP, for which the “shrunken log2 fold change” value was 0.0467.

On to RRIRGRPPRLPRPRPRPDLAPRP, for which the “shrunken log2 fold change” value was determined as 1.59.

In the case of RRIRCRPPRLPRPRPRPNWSPRP, the “shrunken log2 fold change” value was -0.206.

As to RRIRTRPPRLPRPRPRPFINPRP, the “shrunken log2 fold change” value was -0.161.

Turning to RRIRARPPRLPRPRPRPFYHPRP, the “shrunken log2 fold change” value was -0.462.

In the case of RRIRYRPPRLPRPRPRPWFNPRP, the “shrunken log2 fold change” value was -0.0994.

Consider RRIRWRPPRLPRPRPRPHHQPRP, for which the “shrunken log2 fold change” value was -0.316.

On to RRIRFRPPRLPRPRPRPNHGPRP, for which the “shrunken log2 fold change” value was -0.4.

For the sequence RRIRIRPPRLPRPRPRPATHPRP, the “shrunken log2 fold change” value is -0.165.

Consider RRIRDRPPRLPRPRPRPWYTPRP, for which the “shrunken log2 fold change” value was -0.0848.

For RRIRVRPPRLPRPRPRPCSTPRP, the “shrunken log2 fold change” value was -0.127.

As to RRIRERPPRLPRPRPRPSKYPRP, the “shrunken log2 fold change” value was -1.02.

RRIRVRPPRLPRPRPRPHWSPRP: the “shrunken log2 fold change” value was -0.191.

For RRIRTRPPRLPRPRPRPHRNPRP, the “shrunken log2 fold change” value was -0.677.

RRIRFRPPRLPRPRPRPGVRPRP: the “shrunken log2 fold change” value was -0.118.

As for RRIRNRPPRLPRPRPRPVPAPRP, the “shrunken log2 fold change” value was determined as 0.459.

Take RRIRTRPPRLPRPRPRPMYQPRP: the “shrunken log2 fold change” value was -0.416.

On to RRIRDRPPRLPRPRPRPYNKPRP, for which the “shrunken log2 fold change” value is -0.398.

As to RRIRIRPPRLPRPRPRPLAAPRP, the “shrunken log2 fold change” value was determined as 0.255.

Take RRIRARPPRLPRPRPRPHCPPRP: the “shrunken log2 fold change” value was -0.0475.

As for RRIRVRPPRLPRPRPRPQTWPRP, the “shrunken log2 fold change” value was -0.148.

For the sequence RRIRQRPPRLPRPRPRPVADPRP, the “shrunken log2 fold change” value is 0.0976.

With RRIRKRPPRLPRPRPRPCDVPRP, the “shrunken log2 fold change” value was found to be 0.0144.

On to RRIRPRPPRLPRPRPRPGKVPRP, for which the “shrunken log2 fold change” value was -0.0669.

Take RRIRNRPPRLPRPRPRPFCYPRP: the “shrunken log2 fold change” value was 0.166.

With RRIRSRPPRLPRPRPRPWWQPRP, the “shrunken log2 fold change” value was -0.0257.

On to RRIRARPPRLPRPRPRPPRWPRP, for which the “shrunken log2 fold change” value turned out to be 0.794.

In the case of RRIRCRPPRLPRPRPRPGPLPRP, the “shrunken log2 fold change” value was 0.213.

RRIRWRPPRLPRPRPRPNWEPRP: the “shrunken log2 fold change” value is -0.00663.

RRIRVRPPRLPRPRPRPGISPRP: the “shrunken log2 fold change” value was -0.49.

For the sequence RRIRGRPPRLPRPRPRPMIHPRP, the “shrunken log2 fold change” value is -0.0642.

As to RRIRMRPPRLPRPRPRPWTWPRP, the “shrunken log2 fold change” value was -0.0795.

As to RRIRPRPPRLPRPRPRPIDFPRP, the “shrunken log2 fold change” value is -0.125.

Turning to RRIRMRPPRLPRPRPRPKMRPRP, the “shrunken log2 fold change” value came to 1.21.

For the sequence RRIRFRPPRLPRPRPRPSMYPRP, the “shrunken log2 fold change” value was -0.432.

Consider RRIRVRPPRLPRPRPRPSTWPRP, for which the “shrunken log2 fold change” value is -0.184.

RRIRERPPRLPRPRPRPCLIPRP: the “shrunken log2 fold change” value was -0.0716.

As for RRIRTRPPRLPRPRPRPNRRPRP, the “shrunken log2 fold change” value worked out at 0.0696.

As for RRIRDRPPRLPRPRPRPYMMPRP, the “shrunken log2 fold change” value is -0.297.

Consider RRIRMRPPRLPRPRPRPFDNPRP, for which the “shrunken log2 fold change” value is 0.0191.

Regarding RRIRGRPPRLPRPRPRPHEFPRP, the “shrunken log2 fold change” value turned out to be 0.144.

For the sequence RRIRDRPPRLPRPRPRPKRKPRP, the “shrunken log2 fold change” value was 0.0894.

Take RRIRRRPPRLPRPRPRPDYPPRP: the “shrunken log2 fold change” value amounted to 0.0596.

As for RRIRRRPPRLPRPRPRPQSTPRP, the “shrunken log2 fold change” value was -0.095.

For the sequence RRIRRRPPRLPRPRPRPFQWPRP, the “shrunken log2 fold change” value was 0.194.

Take RRIRDRPPRLPRPRPRPAKKPRP: the “shrunken log2 fold change” value was -0.00565.

In the case of RRIRHRPPRLPRPRPRPTPMPRP, the “shrunken log2 fold change” value came to 0.0946.

Take RRIRNRPPRLPRPRPRPYDYPRP: the “shrunken log2 fold change” value was -0.129.

Take RRIRCRPPRLPRPRPRPNESPRP: the “shrunken log2 fold change” value is -0.00497.

With RRIRQRPPRLPRPRPRPQGTPRP, the “shrunken log2 fold change” value came out at 0.193.

With RRIRLRPPRLPRPRPRPKEKPRP, the “shrunken log2 fold change” value was -0.0145.

In the case of RRIRIRPPRLPRPRPRPIRLPRP, the “shrunken log2 fold change” value is -0.41.

As for RRIRFRPPRLPRPRPRPYWFPRP, the “shrunken log2 fold change” value was -0.0527.

With RRIRGRPPRLPRPRPRPYETPRP, the “shrunken log2 fold change” value is 0.16.

For the sequence RRIRDRPPRLPRPRPRPLNTPRP, the “shrunken log2 fold change” value is -0.0995.

With RRIRPRPPRLPRPRPRPTFEPRP, the “shrunken log2 fold change” value was determined as 0.035.

As to RRIRRRPPRLPRPRPRPMANPRP, the “shrunken log2 fold change” value was 0.136.

RRIRLRPPRLPRPRPRPKRLPRP: the “shrunken log2 fold change” value was -0.0581.

Turning to RRIRKRPPRLPRPRPRPFWFPRP, the “shrunken log2 fold change” value turned out to be 0.247.

As to RRIRHRPPRLPRPRPRPWCSPRP, the “shrunken log2 fold change” value was -0.348.

Consider RRIRSRPPRLPRPRPRPEFQPRP, for which the “shrunken log2 fold change” value worked out at 0.161.

On to RRIRTRPPRLPRPRPRPTYTPRP, for which the “shrunken log2 fold change” value is -0.496.

For the sequence RRIRTRPPRLPRPRPRPMCMPRP, the “shrunken log2 fold change” value is -0.0542.

In the case of RRIRMRPPRLPRPRPRPWLWPRP, the “shrunken log2 fold change” value came to 0.0882.

As for RRIRQRPPRLPRPRPRPNRKPRP, the “shrunken log2 fold change” value was -0.141.

Take RRIRDRPPRLPRPRPRPIIRPRP: the “shrunken log2 fold change” value was -0.0604.

Turning to RRIRLRPPRLPRPRPRPAFLPRP, the “shrunken log2 fold change” value was 0.134.

Regarding RRIRKRPPRLPRPRPRPMMQPRP, the “shrunken log2 fold change” value is 0.405.

As for RRIRNRPPRLPRPRPRPSEVPRP, the “shrunken log2 fold change” value was -0.0684.

As to RRIRSRPPRLPRPRPRPPWTPRP, the “shrunken log2 fold change” value was determined as 0.319.

For RRIRVRPPRLPRPRPRPWRHPRP, the “shrunken log2 fold change” value was found to be 0.288.

Regarding RRIRMRPPRLPRPRPRPSEYPRP, the “shrunken log2 fold change” value stood at 0.0493.

For the sequence RRIRARPPRLPRPRPRPYFDPRP, the “shrunken log2 fold change” value is -0.123.

With RRIRWRPPRLPRPRPRPGSCPRP, the “shrunken log2 fold change” value stood at 0.389.

As for RRIRKRPPRLPRPRPRPGVIPRP, the “shrunken log2 fold change” value came out at 0.251.

On to RRIRARPPRLPRPRPRPLTLPRP, for which the “shrunken log2 fold change” value turned out to be 0.0472.
